Reference: patent US20240124553A1
Read-outs that look alike come from different tables or passages of the source.

B1: MXRA8-2-Fc (extracellular domain of human MXRA8-2 fused to mouse IgG2b Fc) (Fc fusion)
chain: ISVLLHSGSSVPAAAGSSVVSESAVSWEAGARAVLRCQSPRMVWTQDRLHDRQRVLHWDLRGPGGGPARRLLDLYSAGEQRVYEARDRGRLELSASAFDDGNFSLLIRAVEETDAGLYTCNLHHHYCHLYESLAVRLEVTDGPPATPAYWDGEKEVLAVARGAPALLTCVNRGHVWTDRHVEEAQQVVHWDRQPPGVPHDRADRLLDLYASGERRAYGPLFLRDRVAVGADAFERGDFSLRIEPLEVADEGTYSCHLHHHYCGLHERRVFHLTVAEPHAEPPPRGSPGNGSSHSGAPGPDPTLARGHNVINVIVPESRAHASVRSPSGPISTINPCPPCKECHKCPAPNLEGGPSVFIFPPNIKDVLMISLTPKVTCVVVDVSEDDPDVQISWFVNNVEVHTAQTQTHREDYNSTIRVVSTLPIQHQDWMSGKEFKCKVNNKDLPSPIERTISKIKGLVRAPQVYILPPPAEQLSRKDVSLTCLVVGFNPGDISVEWTSNGHTEENYKDTAPVLDSDGSYFIYSKLNMKTSKWEKTDSFSCNVRHEGLKNYYLKKTISRSPGK
B2: Mxra8-Fc (extracellular domain of mouse Mxra8 fused to mouse IgG2b Fc) (Fc fusion)
chain: SGPSGTAAASSSLVSESVVSLAAGTQAVLRCQSPRMVWTQDRLHDRQRVVHWDLSGGPGSQRRRLVDMYSAGEQRVYEPRDRDRLLLSPSAFHDGNFSLLIRAVDRGDEGVYTCNLHHHYCHLDESLAVRLEVTEDPLLSRAYWDGEKEVLVVAHGAPALMTCINRAHVWTDRHLEEAQQVVHWDRQLPGVSHDRADRLLDLYASGERRAYGPPFLRDRVSVNTNAFARGDFSLRIDELERADEGIYSCHLHHHYCGLHERRVFHLQVTEPAFEPPARASPGNGSGHSSAPSPDPTLTRGHSIINVIVPEDHTHPSGPISTINPCPPCKECHKCPAPNLEGGPSVFIFPPNIKDVLMISLTPKVTCVVVDVSEDDPDVQISWFVNNVEVHTAQTQTHREDYNSTIRVVSTLPIQHQDWMSGKEFKCKVNNKDLPSPIERTISKIKGLVRAPQVYILPPPAEQLSRKDVSLTCLVVGFNPGDISVEWTSNGHTEENYKDTAPVLDSDGSYFIYSKLNMKTSKWEKTDSFSCNVRHEGLKNYYLKKTISRSPGK
B3: Mxra8-Fc (mouse Mxra8 extracellular domain fused to mouse IgG2b Fc) (Fc fusion)
chain: B2 chain

Legend:
[1] = target: CHIKV virus-like particles (strain 37997) (chikungunya virus)
[2] = target: CHIKV strain 181/25 (virions; also E2-E1 shown on infected cells) (chikungunya virus); test: ELISA, CHIKV-181/25 captured with a human anti-CHIKV mAb, anti-mouse IgG-HRP
[3] = target: CHIKV virus-like particles (strain 37997) (chikungunya virus); remark: listed apart in the source
[4] = target: CHIKV E2-6K-E1 envelope proteins (strain S27) with E2 Q195A (Chikungunya virus strain S27) (UniProt Q8JUX5); test: flow cytometry, transfected 293T cells

| Binder | EC50 (read off the curve) [1] | EC50 (read off the curve) [2] | EC50 (read off the curve) [3] | Binding Reactivity (% WT) [4] |
| --- | --- | --- | --- | --- |
| B1 | 0.05 µg/mL | – | – | – |
| B2 | 0.01 µg/mL | 0.1 µg/mL | 0.01 µg/mL | – |
| B3 | – | – | – | 82.4 % WT |
